This test concerns the target His-tagged N-terminal domain (1-165 aa) of matrix protein 1 (M1) of influenza A virus A/WSN/33 (H1N1) (Influenza A virus A/WSN/33 (H1N1)) (UniProt P05777). In words: crystal structure.

The substance “His-tagged N-terminal domain (1-165 aa) of matrix protein 1 (M1) of influenza A virus A/WSN/33 (H1N1) (from UniProt P05777 1-165) (domain or fragment)” came in with a stoichiometry N of 2.

The record behind these values is paper PMC4190115.
